Data taken from IntAct's records for PubMed 24076405.

B1: SCL-interrupting locus protein (Homo sapiens), Q15468 (parent)
chain: MEPIYPFARPQMNTRFPSSRMVPFHFPPSKCALWNPTPTGDFIYLHLSYYRNPKLVVTEKTIRLAYRHAKQNKKNSSCFLLGSLTADEDEEGVTLTVDRFDPGREVPECLEITPTASLPGDFLIPCKVHTQELCSREMIVHSVDDFSSALKALQCHICSKDSLDCGKLLSLRVHITSRESLDSVEFDLHWAAVTLANNFKCTPVKPIPIIPTALARNLSSNLNISQVQGTYKYGYLTMDETRKLLLLLESDPKVYSLPLVGIWLSGITHIYSPQVWACCLRYIFNSSVQERVFSESGNFIIVLYSMTHKEPEFYECFPCDGKIPDFRFQLLTSKETLHLFKNVEPPDKNPIRCELSAESQNAETEFFSKASKNFSIKRSSQKLSSGKMPIHDHDSGVEDEDFSPRPIPSPHPVSQKISKIQPSVPELSLVLDGNFIESNPLPTPLEMVNNENPPLINHLEHLKPLQPQLYDEKHSPEVEAGEPSLRGIPNQLNQDKPALLRHCKVRQPPAYKKGNPHTRNSIKPSSHNGPSHDIFEKLQTVSAGNVQNEEYPIRPSTLNSRQSSLAPQSQPHDFVFSPHNSGRPMELQIPTPPLPSYCSTNVCRCCQHHSHIQYSPLNSWQGANTVGSIQDVQSEALQKHSLFHPSGCPALYCNAFCSSSSPIALRPQGDMGSCSPHSNIEPSPVARPPSHMDLCNPQPCTVCMHTPKTESDNGMMGLSPDAYRFLTEQDRQLRLLQAQIQRLLEAQSLMPCSPKTTAVEDTVQAGRQMELVSVEAQSSPGLHMRKGVSIAVSTGASLFWNAAGEDQEPDSQMKQDDTKISSEDMNFSVDINNEVTSLPGSASSLKAVDIPSFEESNIAVEEEFNQPLSVSNSSLVVRKEPDVPVFFPSGQLAESVSMCLQTGPTGGASNNSETSEEPKIEHVMQPLLHQPSDNQKIYQDLLGQVNHLLNSSSKETEQPSTKAVIISHECTRTQNVYHTKKKTHHSRLVDKDCVLNATLKQLRSLGVKIDSPTKVKKNAHNVDHASVLACISPEAVISGLNCMSFANVGMSGLSPNGVDLSMEANAIALKYLNENQLSQLSVTRSNQNNCDPFSLLHINTDRSTVGLSLISPNNMSFATKKYMKRYGLLQSSDNSEDEEEPPDNADSKSEYLLNQNLRSIPEQLGGQKEPSKNDHEIINCSNCESVGTNADTPVLRNITNEVLQTKAKQQLTEKPAFLVKNLKPSPAVNLRTGKAEFTQHPEKENEGDITIFPESLQPSETLKQMNSMNSVGTFLDVKRLRQLPKLF
B2: Centrosomal P4.1-associated protein (Homo sapiens), Q9HC77 (parent)
chain: MFLMPTSSELNSGQNFLTQWMTNPSRAGVILNRGFPILEADKEKRAAVDISTSFPIKGTHFSDSFSFINEEDSLLEEQKLESNNPYKPQSDKSETHTAFPCIKKGPQVAACHSAPGHQEENKNDFIPDLASEFKEGAYKDPLFKKLEQLKEVQQKKQEQLKRQQLEQLQRLMEEQEKLLTMVSGQCTLPGLSLLPDDQSQKHRSPGNTTTGERATCCFPSYVYPDPTQEETYPSNILSHEQSNFCRTAHGDFVLTSKRASPNLFSEAQYQEAPVEKNNLKEENRNHPTGESILCWEKVTEQIQEANDKNLQKHDDSSEVANIEERPIKAAIGERKQTFEDYLEEQIQLEEQELKQKQLKEAEGPLPIKAKPKQPFLKRGEGLARFTNAKSKFQKGKESKLVTNQSTSEDQPLFKMDRQQLQRKTALKNKELCADNPILKKDSKARTKSGSVTLSQKPKMLKCSNRKSLSPSGLKIQTGKKCDGQFRDQIKFENKVTSNNKENVTECPKPCDTGCTGWNKTQGKDRLPLSTGPASRLAAKSPIRETMKESESSLDVSLQKKLETWEREKEKENLELDEFLFLEQAADEISFSSNSSFVLKILERDQQICKGHRMSSTPVKAVPQKTNPADPISHCNRSEDLDHTAREKESECEVAPKQLHSLSSADELREQPCKIRKAVQKSTSENQTEWNARDDEGVPNSDSSTDSEEQLDVTIKPSTEDRERGISSREDSPQVCDDKGPFKDTRTQEDKRRDVDLDLSDKDYSSDESIMESIKHKVSEPSRSSSLSLSKMDFDDERTWTDLEENLCNHDVVLGNESTYGTPQTCYPNNEIGILDKTIKRKIAPVKRGEDLSKSRRSRSPPTSELMMKFFPSLKPKPKSDSHLGNELKLNISQDQPPGDNARSQVLREKIIELETEIEKFKAENASLAKLRIERESALEKLRKEIADFEQQKAKELARIEEFKKEEMRKLQKERKVFEKYTTAARTFPDKKEREEIQTLKQQIADLREDLKRKETKWSSTHSRLRSQIQMLVRENTDLREEIKVMERFRLDAWKRAEAIESSLEVEKKDKLANTSVRFQNSQISSGTQVEKYKKNYLPMQGNPPRRSKSAPPRDLGNLDKGQAASPREPLEPLNFPDPEYKEEEEDQDIQGEISHPDGKVEKVYKNGCRVILFPNGTRKEVSADGKTITVTFFNGDVKQVMPDQRVIYYYAAAQTTHTTYPEGLEVLHFSSGQIEKHYPDGRKEITFPDQTVKNLFPDGQEESIFPDGTIVRVQRDGNKLIEFNNGQRELHTAQFKRREYPDGTVKTVYANGHQETKYRSGRIRVKDKEGNVLMDTEL
partner: B1 chain

Variants of: B1
Details: with cpap_human CPAP

Effect of a mutation on the interaction, decreasing interaction strength:
R405I
K419E

Variants of: B2
Details: with stil_human STIL

Effect of a mutation on the interaction, decreasing interaction strength:
F1229A
Y1208A
Y1210A
E1235V
E1235K
